This note sets out measurements from US20210238260A1 (published 2021).

One experiment has as its target Factor X (FX) (UniProt P00742 41-488). Description: cell-based or functional assay.
The target of experiment [1] is T1, plasma purified human AT-III (antithrombin III) (human, UniProt P01008 33-464).
T1 construct: also called AT-III/UFH complex
Description: K0.5: AT-III conc. for 50% inhibition of FIXa amidolytic activity, AT-III/UFH titrated, 10 s incubation.

Experiment [2] deals with T2, plasma purified human antithrombin III (AT-III), in complex with unfractionated heparin (human, UniProt P01008 33-464).
T2 construct: also called AT-III/UFH
Description: AT-III/UFH inhibition of FIXa; K0.5 = AT-III conc. for 50% inhibition of residual activity on Mesyl-D-CHG-Gly-Arg-AMC.

Numbering of substitutions follows the chain as printed. In names and notes the source's numbering stands.

B1: FIXa-R318Y/R338E/T343R (enzyme)
chain 1: YNSGKLEEFVQGNLERECMEEKCSFEEAREVFENTERTTEFWKQYVDGDQCESNPCLNGGSCKDDINSYECWCPFGFEGKNCELDVTCNIKNGRCEQFCKNSADNKVVCSCTEGYRLAENQKSCEPAVPFPCGRVSVSQTSKLTR
chain 2: VVGGEDAKPGQFPWQVVLNGKVDAFCGGSIVNEKWIVTAAHCVETGVKITVVAGEHNIEETEHTEQKRNVIRIIPHHNYNAAINKYNHDIALLELDEPLVLNSYVTPICIADKEYTNIFLKFGSGYVSGWGRVFHKGYSALVLQYLRVPLVDRATCLESTKFRIYNNMFCAGFHEGGRDSCQGDSGGPHVTEVEGTSFLTGIISWGEECAMKGKYGIYTKVSRYVNWIKEKTKLT
Regarding B1, in the experiment with Factor X (FX), the “Factor X activation, fold over wild-type or BeneFIX FIX” value was about 2.5 fold.

B2: FIXa-A103N/N105S/R318Y/R338E/R403E/E410N (enzyme)
chain 1: B1 chain 1 with A103N, N105S
chain 2: B1 chain 2 with R163T, R223E, E230N
Turning to B2, in experiment [1], 9.19 µM corresponded to half-maximal inhibition (IC50).

B3: FIXa D203N/F205T/R318Y/E410N (enzyme)
light: B1 chain 1
heavy: B1 chain 2 with D23N, F25T, E158R, R163T, E230N
notes: also called D39N/F41T/R150Y/E240N
B3 displayed a concentration for half-maximal inhibition (IC50) in experiment [2] of 1.28 µM.

B4: FIXa A103N/N105S/R318Y/R338E/R403E/E410N (enzyme)
light: B1 chain 1 with A103N, N105S
heavy: B1 chain 2 with R163T, R223E, E230N
B4: in experiment [2], the IC50 worked out at 9.19 µM.

B5: FIXa-D203N/F205T/R318Y/E410N (enzyme)
chain 1: B1 chain 1
chain 2: B1 chain 2 with D23N, F25T, E158R, R163T, E230N
notes: as for B3
In the case of B5, in experiment [1], the IC50 came to 1.28 µM.
